Measured values published in patent US20200317768A1 (published 2020).
Substitutions are numbered along the chain they refer to.

T1: cynomolgus monkey FcγRIIa1 extracellular domain, His-tagged (cynomolgus monkey)
T1 construct: also called cyno FcγRIIa1; cynoFcgRIIa1; not shown: C-terminal His-tag
T1 chain: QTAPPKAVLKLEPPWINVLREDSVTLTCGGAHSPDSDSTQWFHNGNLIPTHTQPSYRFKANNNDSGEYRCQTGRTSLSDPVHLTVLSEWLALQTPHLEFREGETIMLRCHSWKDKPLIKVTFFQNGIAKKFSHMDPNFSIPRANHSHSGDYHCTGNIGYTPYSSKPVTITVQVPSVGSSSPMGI

T2: cynomolgus monkey FcγRIIa2 extracellular domain, His-tagged (cynomolgus monkey)
T2 construct: also called cyno FcγRIIa2; cynoFcgRIIa2; not shown: C-terminal His-tag
T2 chain: T1 chain with P95T, T121A, I127K, A128S, K130N, D135N, R142Q

T3: cynomolgus monkey FcγRIIb extracellular domain, His-tagged (cynomolgus monkey)
T3 construct: also called cyno FcγRIIb; cynoFcγRIIb; not shown: C-terminal His-tag
T3 chain: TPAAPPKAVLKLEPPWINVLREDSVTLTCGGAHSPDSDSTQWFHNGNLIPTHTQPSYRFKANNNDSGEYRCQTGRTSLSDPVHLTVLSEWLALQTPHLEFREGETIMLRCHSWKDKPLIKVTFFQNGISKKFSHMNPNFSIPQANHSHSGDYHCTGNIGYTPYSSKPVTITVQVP

T4: cynomolgus monkey FcγRIIIaS extracellular domain, His-tagged (cynomolgus monkey, UniProt Q8SPW2 21-206 at identity 1.00))
T4 construct: also called cyno FcγRIIIaS; cynoFcγRIIIaS; not shown: C-terminal His-tag
T4 chain: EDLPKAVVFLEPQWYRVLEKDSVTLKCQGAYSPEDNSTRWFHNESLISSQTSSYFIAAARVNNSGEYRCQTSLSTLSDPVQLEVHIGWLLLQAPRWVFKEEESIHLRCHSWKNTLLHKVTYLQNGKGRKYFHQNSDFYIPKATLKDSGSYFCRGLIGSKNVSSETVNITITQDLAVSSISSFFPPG

T5: human FcγRIIaH extracellular domain, His-tagged (human, UniProt P12318 34-217)
T5 construct: also called human FcγRIIa (type H); FcgRIIaH; not shown: C-terminal His-tag
T5 sequence: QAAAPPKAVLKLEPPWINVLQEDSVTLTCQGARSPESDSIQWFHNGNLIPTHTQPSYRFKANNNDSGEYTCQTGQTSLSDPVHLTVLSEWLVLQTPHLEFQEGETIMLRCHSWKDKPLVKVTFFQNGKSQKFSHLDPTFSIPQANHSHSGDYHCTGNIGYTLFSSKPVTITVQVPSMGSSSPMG

T6: human FcγRIIaR extracellular domain, His-tagged (human, UniProt P12318 34-217)
T6 construct: also called human FcγRIIa (type R); FcgRIIaR; not shown: C-terminal His-tag
T6 chain: T5 sequence with H134R

T7: human FcγRIIb extracellular domain, His-tagged (human, UniProt P31994 43-217)
T7 construct: also called FcgRIIb (human); not shown: C-terminal His-tag
T7 sequence: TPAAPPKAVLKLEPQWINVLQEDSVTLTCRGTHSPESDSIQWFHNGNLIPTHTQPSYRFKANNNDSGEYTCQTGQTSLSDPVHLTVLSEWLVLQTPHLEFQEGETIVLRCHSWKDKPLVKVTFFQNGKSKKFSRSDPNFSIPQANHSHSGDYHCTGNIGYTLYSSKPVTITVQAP

B1: M103205H795-MY471/M103202L889-SK1 (antibody, human IgG1, kappa)
heavy: QVTLKESGPVLVKPTETLTLTCTVSGIDLSHDDISWVRQAPGKGLEWVGIISYAGSTYYASWAKGRLTISKDTSKNQVVLTMTNMDPVDTATYYCARGVPAYSHGGDLWGQGTLVTVSSASTKGPSVFPLAPSSKSTSGGTAALGCLVKDYFPEPVTVSWNSGALTSGVHTFPAVLQSSGLYSLSSVVTVPSSSLGTQTYICNVNHKPSNTKVDKKVEPKSCDKTHTCPPCPRPELLTGPSVFLFPPKPKDTLMISRTPEVTCVVVDVSDEDPEVKFNWYVDGVEVHNAKTKPREEQYNSTYRVVSVLTVLHQDWLNGKEYKCKVSNKALPKPIEKTISKAKGQPREPQVYTLPPSREEMTKNQVSLTCLVKGFYPSDIAVEWESNGQPENNYKTTPPVLDSDGSFFLYSKLTVDKSRWQQGNVFSCSVMHEALHNHYTQKSLSLSP
light: DIVMTQSPATLSLSPGERATLSCTSSQSVYHANWLSWFQQKPGQPPKLLIYWASTLAYGVPSRFSGSGSGTDFTLTISSLQPEDAATYYCAGGYGGGRYAFGQGTKVEIKRTVAAPSVFIFPPSDEQLKSGTASVVCLLNNFYPREAKVQWKVDNALQSGNSQESVTEQDSKDSTYSLSSTLTLSKADYEKHKVYACEVTHQGLSSPVTKSFNRGEC
notes: copies: 2 + 2
B2: M103205H795-MY474/M103202L889-SK1 (antibody, human IgG1, kappa)
heavy: B1 heavy with R233V
light: B1 light
notes: copies: 2 + 2
B3: M103205H795-MY475/M103202L889-SK1 (antibody, human IgG1, kappa)
heavy: B1 heavy with R233W
light: B1 light
notes: copies: 2 + 2
B4: M103205H795-MY476/M103202L889-SK1 (antibody, human IgG1, kappa)
heavy: B1 heavy with R233Y
light: B1 light
notes: copies: 2 + 2
B5: M103205H795-MY473/M103202L889-SK1 (antibody, human IgG1, kappa)
heavy: B1 heavy with R233T
light: B1 light
notes: copies: 2 + 2
B6: M103205H795-MY472/M103202L889-SK1 (antibody, human IgG1, kappa)
heavy: B1 heavy with R233S
light: B1 light
notes: copies: 2 + 2

Tests used:
[1] = biological target: T1, cynomolgus monkey FcγRIIa1 …; assay: SPR (BIACORE), captured antibody, FcgR as analyte
[2] = biological target: T2, cynomolgus monkey FcγRIIa2 …; assay: SPR (BIACORE), captured antibody, FcgR as analyte
[3] = biological target: T3, cynomolgus monkey FcγRIIb extracellular …; assay: SPR (BIACORE), captured antibody, FcgR as analyte
[4] = biological target: T4, cynomolgus monkey FcγRIIIaS …; assay: SPR (BIACORE), captured antibody, FcgR as analyte
[5] = biological target: T5, human FcγRIIaH extracellular domain, …; assay: SPR (BIACORE), captured antibody, FcgR as analyte
[6] = biological target: T6, human FcγRIIaR extracellular domain, …; assay: SPR (BIACORE), captured antibody, FcgR as analyte
[7] = biological target: T7, human FcγRIIb extracellular domain, …; assay: SPR (BIACORE), captured antibody, FcgR as analyte
[8] = biological target: T8, human FcγRIIIaV extracellular domain, His-tagged (human, UniProt P08637 17-208); assay: SPR (BIACORE), captured antibody, FcgR as analyte
T8 construct: also called FcgRIIIaV; not shown: C-terminal His-tag
T8 sequence (P08637 17-208 F176V): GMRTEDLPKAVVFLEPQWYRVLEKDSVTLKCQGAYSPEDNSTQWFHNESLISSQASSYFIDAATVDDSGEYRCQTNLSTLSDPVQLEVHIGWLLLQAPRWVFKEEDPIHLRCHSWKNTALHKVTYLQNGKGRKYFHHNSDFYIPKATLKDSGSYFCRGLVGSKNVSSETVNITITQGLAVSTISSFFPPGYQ

[9] = biological target: T5, human FcγRIIaH extracellular domain, …; assay: SPR (BIACORE); KD of SG1 divided by KD of variant;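 also: relative to parent M103205H795-SG1 carrying the SG1 human heavy chain constant region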
[10] = biological target: T7, human FcγRIIb extracellular domain, …; assay: SPR (BIACORE); KD of SG1 divided by KD of variant;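 also: relative to parent M103205H795-SG1 carrying the SG1 human heavy chain constant region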

| Kd [1] [nM] | Kd [2] [nM] | Kd [3] [nM] | Kd [4] [nM] | Kd [5] [nM] | Kd [6] [nM] | Kd [7] [nM] | Kd [8] [nM] | KD fold (SG1 = 1) [9] [fold] | KD fold (SG1 = 1) [10] [fold] | Binder |
| --- | --- | --- | --- | --- | --- | --- | --- | --- | --- | --- |
| 2600 | 2100 | 700 | 1800 | 230 | 470 | 2800 | 5300 | 3 | 1.8 | B1 |
| 2000 | 1800 | 500 | 1600 | 170 | 340 | 2000 | 4600 | 4.1 | 2.3 | B2 |
| 1000 | 1000 | 270 | 1700 | 90 | 210 | 1100 | 5000 | 7.7 | 4.2 | B3 |
| 1400 | 1300 | 590 | 2000 | 140 | 250 | 1200 | 5500 | 4.9 | 3.8 | B4 |
| 1600 | 2600 | 580 | 1700 | 220 | 490 | 2200 | 5200 | 3.1 | 2.1 | B5 |
| 2400 | 2100 | 660 | 2500 | 250 | 490 | 2500 | 6300 | 3.8 | 1.8 | B6 |
